{"source": "patent US20140178332A1", "about": "(published 2014)", "binders": {"B1": {"name": "murine anti-human IL-12p40 monoclonal antibody 8E1 (antibody, V domains shown)", "VH": "EVKLVESGGGLVQPGGSRKLSCAASGFTFSDYGMVWVRQAPGKGLEWVASISSGSSNIYYADTVKGRFTISRDDPNNTLFLQMRSLRSEDTAMYYCARNPYWGQGTTLTVSS", "VL": "DIVMTQSQKFMSTSVGDRVSVTCKASQNVGTNVAWYQQKPGQSPKGLIYSASHRYSGVPDRFAGSGSGTDFTLTISNVQSEDLAEYFCQQYNSYPLTFGGGTKLELKR", "notes": "Murine mAb; also called biotinylated 8E1"}}, "key": {"[1]": {"molecular_target": "T1, recombinant purified cyno IL-12 p70 (cynomolgus monkey)", "T1 chain 1": "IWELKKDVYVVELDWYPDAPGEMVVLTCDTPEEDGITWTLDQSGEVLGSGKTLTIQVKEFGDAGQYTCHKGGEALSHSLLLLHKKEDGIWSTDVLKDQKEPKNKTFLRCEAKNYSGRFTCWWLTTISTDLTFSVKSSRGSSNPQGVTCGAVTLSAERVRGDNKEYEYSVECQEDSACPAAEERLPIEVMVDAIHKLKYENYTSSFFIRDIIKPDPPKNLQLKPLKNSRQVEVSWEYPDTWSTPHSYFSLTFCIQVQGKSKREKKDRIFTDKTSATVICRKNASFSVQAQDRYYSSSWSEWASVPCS", "T1 chain 2": "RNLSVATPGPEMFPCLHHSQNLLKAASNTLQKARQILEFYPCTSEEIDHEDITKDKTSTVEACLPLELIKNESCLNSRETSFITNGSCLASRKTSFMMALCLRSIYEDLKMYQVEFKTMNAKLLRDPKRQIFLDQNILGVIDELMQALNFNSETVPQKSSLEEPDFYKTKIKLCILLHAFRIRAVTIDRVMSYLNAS", "assay": "cell-based or functional assay"}, "[2]": {"molecular_target": "T2, recombinant purified human IL-12 p70 (human, UniProt P29459 23-219)", "T2 sequence 1": "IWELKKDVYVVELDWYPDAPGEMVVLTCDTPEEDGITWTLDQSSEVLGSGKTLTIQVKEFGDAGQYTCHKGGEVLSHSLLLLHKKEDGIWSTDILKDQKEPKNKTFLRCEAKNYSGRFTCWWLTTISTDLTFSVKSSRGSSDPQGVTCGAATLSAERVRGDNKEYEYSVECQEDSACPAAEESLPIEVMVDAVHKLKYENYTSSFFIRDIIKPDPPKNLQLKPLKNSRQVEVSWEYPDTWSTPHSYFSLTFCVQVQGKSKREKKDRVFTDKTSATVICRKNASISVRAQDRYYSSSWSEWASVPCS", "T2 sequence 2": "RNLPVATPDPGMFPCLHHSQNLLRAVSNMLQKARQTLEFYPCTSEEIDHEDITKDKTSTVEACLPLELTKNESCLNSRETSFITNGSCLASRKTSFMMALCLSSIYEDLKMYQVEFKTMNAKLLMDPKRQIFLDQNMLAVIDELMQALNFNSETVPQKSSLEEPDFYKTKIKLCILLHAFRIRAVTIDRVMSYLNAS", "assay": "cell-based or functional assay"}, "[3]": {"molecular_target": "T3, recombinant purified mouse IL-12 (Peprotech) (mouse, UniProt P43432 23-335; P43431 23-215)", "T3 construct": "Bought reagent; also called mu IL-12; murine IL-12", "T3 sequence (looked up) 1": "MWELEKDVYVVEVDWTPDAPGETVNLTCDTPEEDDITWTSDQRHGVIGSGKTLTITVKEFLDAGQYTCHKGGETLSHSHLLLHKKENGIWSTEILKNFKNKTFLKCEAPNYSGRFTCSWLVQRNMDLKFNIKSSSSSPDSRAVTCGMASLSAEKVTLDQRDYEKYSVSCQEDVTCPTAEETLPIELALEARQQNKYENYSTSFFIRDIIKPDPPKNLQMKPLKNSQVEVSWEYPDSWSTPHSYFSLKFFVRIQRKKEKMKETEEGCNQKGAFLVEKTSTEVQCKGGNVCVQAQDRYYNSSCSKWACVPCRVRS", "T3 sequence (looked up) 2": "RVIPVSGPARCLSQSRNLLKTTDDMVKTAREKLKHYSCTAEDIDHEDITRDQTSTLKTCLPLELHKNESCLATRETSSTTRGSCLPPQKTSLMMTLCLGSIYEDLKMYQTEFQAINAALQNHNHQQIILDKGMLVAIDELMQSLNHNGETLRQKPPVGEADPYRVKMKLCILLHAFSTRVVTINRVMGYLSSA", "assay": "indirect ELISA, mAb captured on anti-mouse IgG Fc, mouse IL-12 at 0.2 ug/ml", "method": "Second, an indirect ELISA was set up by coating ELISA plates with 5 ug/ml of goat anti-mouse IgG, Fc fragment specific antibody (Pierce #31170, Rockland, Ill.). Murine anti-human IL-12 p40 mAbs were prepared at various concentrations ranging from 0.1 to 100 ng/ml in PBS containing 0.1% BSA; 50 ul of each antibody dilution was added to the coated ELISA plate and incubated for 1 hour at room temperature. Wells were washed 3 times with PBS containing 0.05% Tween-20. Recombinant purified mouse IL-12 (Preprotech) was diluted at 0.2 ug/ml in PBS containing 0.1% BSA; 50 ul/well was added and the plates incubated for 1 hour at room temperature. Wells were washed 3 times with PBS containing 0.05% Tween-20. Biotinylated anti-mouse IL-12 antibody (R&D # BAF419) was diluted at 0.2 ug/ml in PBS containing 0.1% BSA; 50 ul/well was added and the plates incubated for 1 hour at room temperature. Wells were washed 3 times with PBS containing 0.05% Tween-20. Streptavidin HRP (Pierce #21126, Rockland, Ill.) was diluted 1:20000 in PBS containing 0.1% BSA; 50 μL/well was added and the plates incubated for 1 hour at room temperature. Plates were washed 3 times with PBS containing 0.05% Tween-20. Fifty microliters of TMB solution was added to each well and incubated for 10 minutes at room temperature. […] Plates were read spectrophotmetrically at a wavelength of 450 nm."}, "[4]": {"molecular_target": "T2, recombinant purified human IL-12 p70", "assay": "competition ELISA on coated human IL-12, competitor of 0.8 µg/ml biotinylated 8E1, Expt. 3", "method": "MaxiSorp ELISA plates (Nalge Nunc International) were coated overnight at 4° C. with 100 μl/well of 1.0 μg/ml human IL-12 in 0.2 M sodium carbonate-bicarbonate buffer, pH 9.4, washed with Wash Buffer (PBS containing 0.1% Tween 20), and blocked for 1 hr at room temperature with 300 μl/well of SuperBlock Blocking Buffer in TBS (Pierce Chemical Company). […] As isotype controls, 100 μl/well of 100 μg/ml mouse IgG 1/κ (MuFd79) or humanized IgG1/κ (HuFd79) monoclonal antibodies in ELISA buffer was used. As a no-competitor control, 100 μl/well of ELISA Buffer was used. After incubating the plates for 1 hr at room temperature, and washing with Wash Buffer, bound antibodies were detected using 100 μl/well of 1 μg/ml HRP-conjugated streptavidin (Pierce Chemical Company) in ELISA buffer. After incubating for 1 hr at room temperature, and washing with Wash Buffer, color development was performed by adding 100 μl/well of ABTS Peroxidase Substrate/Peroxidase Solution B (KPL, Inc.). After incubating for 5 min at room temperature, color development was stopped by adding 50 μl/well of 2% oxalic acid. Absorbance was read at 415 nm.\nThe affinity of 8E1.4, 8E1.5 and 8E1.6 to human IL-12 was analyzed by competition ELISA as described above."}}}
{"binder": "B1", "values": [{"measurement": "Average IC50 (nM) Cyno IL-12, PHA blast IFN-γ assay", "setting": "[1]", "value": 0.18, "unit": "nM"}, {"measurement": "Average IC50 (nM) Human IL-12, PHA blast IFN-γ assay", "setting": "[2]", "value": 0.19, "unit": "nM"}, {"measurement": "binding result", "setting": "[3]", "value": "no binding (tested: 0.1 to 100 ng/ml mAb)"}, {"measurement": "IC50", "setting": "[4]", "value": 2.28, "unit": "µg/mL"}]}
